experiment: soluble fraction after stress (log2 fold change); higher = more stays soluble; pooled small domains, quantitative proteomics; settings: stress: 50 degC
Outline: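 Each library was heated to 50°C as a stress step. The libraries, made up of small protein domains, were pooled and analysed at high throughput by quantitative proteomics. The reported value is the base-two logarithm of the fold change in each protein's soluble amount after stress, taken as a measure of aggregation propensity. The higher the value, the more protein stays in solution.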

Sequence	soluble fraction (log2)
HMNHGDATTETQAEIMAILSDMKPHPITELNTIKRPYEQIDTALTYLINEEKIYRMDGMIFIG	-0.694
HMNKDEFLRRLEDALSGEVPASVIRENLNYYADYLSQELGKGRTMDEIIEEIGEPNIVARTIINSAEAA	0.0708
HMPSIGKNILYYRKKRNMTIDELSKKSGVSKSMLSQVEQEKTNPTVVTVWKIARSLDVSINQLLQT	-0.489
HMWNGIVDAGKARQHLMNLSQLGVGRRAVAAASDVAETVLMDIRSGTKTRIRARTERQILAVTPEMA	-2.23
HMAFEDYAGEYRSAADFAESLHEDTGTEIPESLRYYIDWQALARDMALNGEIMVFQTGFDEVHIFWS	-0.517
HMRDQAIDIYKTVHSVAEPYKEVFLLRVLGELSFKEISHIFGKSESWAKVTFFRAKIKVVEKREES	-3.74
HMEEKWKENYEKIKLFISINNRYPSVYSEDKEEGLIGSFMSNQKRRKNKLSKEKMALFEALPNWIWE	-1.72
HMHAGMKSWTIQYEKSPIYGSFLMYKDGNIYIQKEDNVVVHFPLDRFSQNDQAILKSRIEKIDQINKSS	-0.0347
HMQKLNIEEQIVYDIIFKNKELSANEIQIKSGIKTSILNALLINLEIKQYIKLKFGNFYEIK	0.209
HMSKGKNEVIAYLKAHNDHRLTVAEILDGLKEEGISINRSTIYRNLDKLVENGDILAFKGKDSESAFYQYS	0.0754
HMLNTLGADIRALRKARGLTLAELAQTLGRSVGWLSQVERDMSEPGINDLRDLARALDVSISSLFG	-1.13
HMASDQGAGALREVSAFFEKHGRVPDPDAVDHDEMRLGSIWASIKSAPTDQMRLEDRFGLLD	0.1
HMAFRWQQIADTITSMIANGSYPRGSRLPTEAALADSFGVNRHTVRRAVAALRDTGLVQPRQGAGVFVIG	-1.55
HMGNNTEITYSEFIRQAEAGNVQYVTVDGEKLLISATDGKSYYTINPRDDQMTDRLLNSGVEIRAEPQ	0.101
HMHDLTERQREILQTLASGKMALREILSILSQPPSLRTLRDELYHLKRIGLVDTMGYGRGATWFLTQ	-0.103
HMRNLFWTEAQNAQNELNAMRINALTQSIRRIEPNFRGIPSLRDPNRPIPNEEVRDYENYLNRILP	0.119
HMENPMIEQLKQFIEAQGLTQGQLAAKLGVSTATVNQYLQGKYKGDTAALDAKAAQLMARSREK	0.103
HMNKEQIASNIAEARKRSGLNQSELARRLGIRPQSVQQWEKGTATPKLDRLTAIAQVLGVSLESLTG	-0.0259
HMSILDEAEFKKIESALLDFITNNIFTVKELLQASRGIKQDKFWKVFQFLQSERKVVVNELGYIEL	-0.205

Sequence	soluble fraction (log2)
HMLQYSQEIEEAQKILQNLGLYKGEIDGINGVNTKSAIKEFQRKSGLIIDGILGPNTTSALSKGAESYITV	0.112
HMLEIQENFQNILKRMELSLSPLERRVLALYLSGYERSEIPEKTGIPLKTFDNALHRVRNKMK	-1.53
HMEEQQIQLIQMKMEKDHKYVGKKISELRIKNMLIVLIKRGDEDIIPRAEVKIKEGDILVLSAQSYEG	-0.00468
HMGLSENALAMLKQQETVLIRLIDGRGNQGALASINLIVSRILNLDIVDRTPEDLLRVIASEGEQND	-3.78
HMARGATELPYSQLLDRVEAGEITTATTQGNTLLSTARDGKRYITYLPLDTMDEVVPRLDAANVEVKTER	0.0506
HMNPVVATTIILDGEIIKDNLAEANLSEEWLLEELKRQNFNDVKEVFYAEWLDGKQLFAYPYTK	-0.224
HMNYEFLEKIGFSSNEAKVYGTLIKHKVLNGYEIAKLSGVARSLVYEVINRLVAKGAVIRIDGEPNFYKP	-1.8
HMEQVKFFDAKVITTPPNRLKTRYTPAGNLRPEADWLQSGAIVPVYETSGAGWYRIGYQTWASAEWMQRLD	-0.934
HMNNLPDFIKQLRKENNLTQEYVASEIGVSRPTYEQIEKGKRELTISEAEKLAKIFNIPLENFLQGKKGV	0.184
HMFPELEPDEQLIADLLRKTNNLQINIITVRTGLPINRVTALLFQMEMKGVVRPLAGGTYHLLV	-0.108
HMIRALVPGQTLHGEIVGRNGGEVQVRLAEDMILNARVDQNIYLELGKDLTFEVKNNGATLTLSPL	-0.272
HMSKTDYKILYSDLNREDAKQLSLLLEDKKIPYQTSEDGKTIKIPEGMVNRFRMEVATMGVNF	0.00779
HMAEPRVQEVYFEFDGKQVEAGQVVSLIEQAYKNEGHQIGRIKDLKVYINSEEGKAYYVINGDDGEGKYIE	0.0517
HMFSNATISGLKAGALVRVYNISGVAVSTLTADAEGKVSVDLNNLPKGVYILSTPSKSFKVLN	-0.54
HMGGLIEPLSARELEVLELMSLGKTNQEIARDLVVASGTIKAHAASIYRKLDAANRTEAVTHARELGIL	-0.0084
HMHPEITLHPVRANIYSISVKNATSMEIYSVSGQLVGIRELKEGTNTLDLTGYINGVYIVNLQNKAFKLVK	-1.94
HMDSISEQIYSIIKEEILLAKRKPGEQINPRKLADEFETSVMPIRDALNQLANEGLVIRKPRVGFFVR	0.0655
HMSLTTKSVEETLGITRQTLHNWIKEGLLPAPKKDFRNWYIWSDEDLENLRNIIEQKTLINNKKQAV	-0.133
HMVRKIQAKLVLRLHAQGLSGRAIARSQGMSRRSVSDVLDAARAVGVGWDDVTGKTDGEVYALLFPGRG	-2.47

Source: the domain aggregation screens of Martell et al. (2025)
